Data from the supplement of paper PMC10567573.
± gives the standard deviation.

Experiment: protein stability index of a GFP-peptide fusion (GPS, HEK-293T) (PSI 1-6); higher = more stable
Conditions: c terminus: a fixed tail appended
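Also: 24-mer peptide tiles fused after GFP, lentivirally expressed, FACS-sorted into six equal bins by GFP/DsRed ratio, decoded by Illumina sequencing, PSI is the read-weighted mean bin number.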

Sequence	protein stability index (treatment: DMSO)	protein stability index (treatment: MLN4924 1 uM, 8 h)
ADEGSRNSRFQMLFTSFQEPPCEG [NETO1]	3.98 ± 0.094	4.17 ± 0.22
CMVEIVQKYDPDKDEWHKVFDLPE [KLHL13]	2.52 ± 0.27	2.59 ± 0.24
LRGSYNSLHDGSDGLDGISVGSYL [LURAP1L]	3.08 ± 0.24	3.1 ± 0.15
RSRGKVLKTKDGKLPFCAMGVSSV [CPOX]	3.4 ± 0.2	3.15 ± 0.41
ELHIHRLRYLSSIWNILDLVVILL [PKD2L1]	2.28 ± 0.33	2.54 ± 0.28
GLVLLKHALGSPEKVKACQGQYET [TBC1D10A]	2.74 ± 0.33	2.94 ± 0.047
GAFPPRGPRPVQSVVPEMEESGAQ [CDK4]	5.22 ± 0.32	5.23 ± 0.18
PTPAKRRSSALWSEMLDITMKESL [NET1]	2.71 ± 0.5	3.15 ± 0.48
PCHPTVKNWRNFASKWGMSYDELC [EDARADD]	2.64 ± 0.28	2.54 ± 0.38
PGFLSTAEEETLSRELEPELRRRR [ALKBH7]	5.12 ± 0.23	5.28 ± 0.3
TENRRLESKIREHLEKKGPQVRDW [KRT18]	3.92 ± 0.16	3.95 ± 0.33
NAEMKSAMRKLWSKKVSLAGKWLY [OR4A15]	3.85 ± 0.63	2.8 ± 0.85
EVLRRLTSSVSCALDEAAAALTRM [ANKRD17]	2.3 ± 0.53	2.1 ± 0.3
EELPCTCPLCTSDRGSCVSTTEGI [RHOBTB3]	4.53 ± 0.22	4.62 ± 0.27
HLFLLGYSDGADDTFAAYTREQLY [MCOLN1]	2.08 ± 0.29	2.35 ± 0.18
GPCKNCKMIMDTAGNDPYCFVEFH [TIA1]	2.2 ± 0.31	2.25 ± 0.35

Sequence	protein stability index (treatment: DMSO)	protein stability index (treatment: MLN4924 1 uM, 8 h)
DLGDIVARSESVLLHMPQPVNPEL [TRIM43]	3.67 ± 0.31	3.8 ± 0.25
ITPQGVAMRAGVLADDHLIEVNGE [PDZK1]	4.72 ± 0.095	4.78 ± 0.22
AGFDAARGDPLGGCQVSPEGYAHL [HDAC6]	3.75 ± 0.26	3.78 ± 0.2
AKQQKFIKAVTHQVKFGQQNPRQV [ZC3H15]	3.19 ± 0.22	3.4 ± 0.3
LNTLTLNVKSEKVYTRHGVPISVT [FLOT1]	2.51 ± 0.079	2.61 ± 0.21
SLKAKVSDNMSHLMVDFAQERQML [FSD1]	3.33 ± 0.22	3.31 ± 0.31
ATITSRGSSLSGSLCSLLESQSTS [LURAP1L]	3.49 ± 0.28	3.6 ± 0.32
MLESPGAPCRSAQASVSCALEALE [HDAC6]	3.35 ± 0.58	3.38 ± 0.4
ISTSGQAGTSSHGCWAWPLAGLSV [PXN]	2.33 ± 0.47	2.25 ± 0.26
MLAIITKMTLTQVSTWFANARRRL [IRX6]	2.29 ± 0.49	2.26 ± 0.27
PANVDASVMYRKWKESKGKDREYT [CDC34]	4.16 ± 0.33	4.21 ± 0.13
LTNSNLPEEELDFFEILRLFFPVI [CNOT7]	2.39 ± 0.31	2.47 ± 0.41
TGQSKIYSYMSPNKCSGMRFPLQE [KMT5A]	2.28 ± 0.29	2.27 ± 0.11
LAYGSVITVKNLRMAIGYLHSHRH [POMT2]	2.53 ± 0.69	2.63 ± 0.65
HLVIQNLFEGMIWFLVPISSVICN [CDS1]	2.96 ± 0.2	3.25 ± 0.41
MFPGVLLPLLESCSVRPDASVSSH [TCF25]	2.62 ± 0.38	2.18 ± 0.2
